Measured values reported in US10188739B2 (Xenetic Biosciences, Inc., priority 2014, dated 2019).
Like-named read-outs stand apart in the source and are kept apart here.

Tests used:
[1] = design: species or system CD-1 mice; settings: mouse, in vivo
Method: (§1) Male CD-1 mice of 8 to 9 weeks of age (18-20 g body weight) were acclimatized for 7 days before being enrolled into the study. Mice were weighed and dosed at 5 μL of dosing material per 20 g of body weight. […] Animals were anesthetized and held with the dorsal end facing down. Dosing materials were administered at a rate of ˜1 μL/10 seconds split equally through both nostrils. Total dosing time ranged from 1.8 to 2.3 minutes. After a nominal 10 minutes post-dose, animals were sacrificed followed by blood collection, perfusion, and tissue collection. The olfactory bulbs were included in the collection of the brain tissues. All tissues were stored at nominal −80° C. until assay. Perfusate contains: 1×PBS pH 7.4, +2.7% w/v BSA+100 U/mL heparin. […] Read plate at Ex/Em 635/675.

[2] = design: species or system CD-1 mice; settings: mouse, in vivo, 10.5 mg/kg
Method: as §1, with “heparin. Lung/Liver/Kidney/Spleen. […] To evaluate recovery and matrix differences between the calibration matrices and study test samples, a spiking recovery experiment was performed (Table 2). […] The RFU correction factor was determined by dividing the response of each analyte spiked into BALB-c lysates (preparation procedures described below) by the response of each analyte spiked into CD-1 homogenate and then extracted. For kidney and liver matrices, there was enough material available to evaluate spiking recovery at two different levels.” for “heparin.”, “635/675 4. […]” for “635/675.”

## Sialong: polysialyated insulin conjugate by N-terminal (B-chain) aldehyde conjugation using 15 kDa CAO; tested labelled with AF-647 (Sialong^AF647)
[1]; 2.1 mg/kg
  Plasma % Dose: 0.0 % Dose
[1]; 10.5 mg/kg
  Plasma % Dose: 0.01 % Dose
[2]
  Lung % Dose: 0.01 % Dose
